# Key:
# [1] = biological target: spike protein (Spike, S protein) of SARS-CoV-2 (SARS-CoV-2, UniProt P0DTC2 14-1273); assay: cell-based or functional assay
# [2] = biological target: biotin-labeled SARS-COV-2 RBD domain (SARS-CoV-2, UniProt P0DTC2 319-541); assay: SPR, Biacore T200, biotin-labeled RBD on SA chip, antibody as analyte, 1:1 model
Binder,"IC50, Plaque Reduction Neutralization Test (PRNT), SARS-CoV-2 euvirus [1] [µg/mL]",Kd [2] [nM]
"antigen-binding unit ABU-174 (antibody, V domains shown) VH: QVQLQQWGAGLLKPSETLSLTCAVYGGSFSDYYWNWIRRPPGKGLEWIGEITHSGSTNYNPSLKSRVTISVDTSKNQFSLKLSSVTAADTAVYYCARGQGYGRVLLWFGEWGQGTLVTVSS VL: EIVLTQSPATLSLSPGERATLSCRASQSVSTYLAWYQQKPGQAPRLLIYDASNRATGIPARFSGSGSGTDFTLTISSLEPEDFAVYYCQQRSNWITFGQGTRLEIK",0.5,
"antigen-binding unit ABU-297 (antibody, V domains shown) VH: EVQLLESGGGVVQPGGSLRLSCAASGFAFTTYAMNWVRQAPGRGLEWVSAISDGGGSAYYADSVKGRFTISRDNSKNTLYLQMNSLRAEDTAVYYCAKTRGRGLYDYVWGSKDYWGQGTLVTVSS VL: not shown",,0.824
"antigen-binding unit ABU-367 (antibody, V domains shown) VH: EVQLVESGGGLIQPGGSLRLSCAASGIIVSSNYMTWVRQAPGKGLEWVSVIYSGGSTFYADSVKGRFTISRDNSKNTLYLQMSSLRAEDTAVYYCARDLGPYGMDVWGQGTTVTVSS VL: DIQLTQSPSFLSASVGDRVTITCRASQGISSDLAWYQQKPGKAPNLLIYAASTLQSGVPSRFSGSGSGTEFTLTISSLQPEDFATYYCQQLNSDLYTFGQGTKLEIK",,0.18
"antigen-binding unit ABU-190 (antibody, V domains shown) VH: EVQLVESGGGLIQPGGSLRLSCAASGITVSSNYMSWVRQAPGKGLEWVSVIYSGGSTDYADSVKGRFTISRDKSKNTLYLQMNSLRAEDTAVYYCARDLGEAGGMDVWGQGTTVTVSS VL: AIQLTQSPSSLSASVGDRVTITCRASQGISSYLAWYQQKPGKAPKLLIYAASTLQSGVPSRFSGSGSGTDFTLTISSLQPEDFATYYCQQLNSYPPAFGGGTKVEIK",0.8,

# Reference: patent US20230183322A1 (PEKING UNIVERSITY, published 2023)
